Reference: the supplement of paper PMC10567573
± gives the standard deviation.

Assay: protein stability index of a GFP-peptide fusion (GPS, HEK-293T) (PSI 1-6); higher = more stable
[1] = treatment: DMSO, c terminus: a fixed tail appended
[2] = treatment: MLN4924 1 uM, 8 h, c terminus: a fixed tail appended
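Further: 24-mer peptide tiles fused after GFP, lentivirally expressed, FACS-sorted into six equal bins by GFP/DsRed ratio, decoded by Illumina sequencing, PSI is the read-weighted mean bin number.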

Sequence	protein stability index [1]	protein stability index [2]	protein stability index (treatment: DMSO, c terminus: native)	protein stability index (treatment: MLN4924 1 uM, 8 h, c terminus: native)
IDKGDIPDLTQAPSSLMETLEQHL [SNAP91]	4.11 ± 0.22	4.08 ± 0.33	–	–
DLYKKVKKNSSPPLSLYGQLLWRE [CRY1]	2.64 ± 0.39	2.67 ± 0.67	–	–
KNDGRIDAQEIMQSLRDLGVKISE [SLC25A25]	3.19 ± 0.21	3.29 ± 0.27	–	–
YDLDKIIELNGGQPPLTYKRFQTL [CRY1]	2.69 ± 0.38	2.77 ± 0.32	–	–
ATLTTTSATSKLIHPDEDISLEER [ZNF207]	5.23 ± 0.064	5.35 ± 0.27	–	–
LHYGLPVVVKLLHPPSHWPLIKAT [CTNNB1]	2.3 ± 0.45	2.46 ± 0.42	–	–
NAGTGLVINQADVRNNRSIIKQLK [PLD5]	3.88 ± 0.27	3.84 ± 0.11	–	–
ALEKLRSEMEEEKRQAVNKAVANM [ZMYND11]	4.42 ± 0.38	4.34 ± 0.36	–	–
AQDDDRLREERKKAKKNKDKYVGV [CLINT1]	5.27 ± 0.17	5.48 ± 0.38	–	–
ITDSYPVVKRREGPAGHSKGELAP [POLD4]	3.42 ± 0.47	4.21 ± 0.45	–	–
LQSISWDPEDFEDAWKRPDALPGQ [TLE6]	3.98 ± 0.29	3.87 ± 0.43	–	–
ALTGHLRTHSVIKEETNHSEMAED [IKZF1]	5.38 ± 0.23	5.13 ± 0.31	–	–
TVLLEEETLEASVGPRETEEKVRD [TOR1AIP2]	5.59 ± 0.21	5.51 ± 0.24	–	–
LVGLATAAFGHVQRAEMLPKTSGT [CPOX]	2.9 ± 0.3	2.91 ± 0.14	–	–
KEEEQSCEYETRLPGNHSTSQEIF [ZNF232]	5.02 ± 0.3	5 ± 0.13	–	–
PPTQLEVNLEEIPGEGLLISWAFT [C2CD2L]	2.75 ± 0.41	3.01 ± 0.5	–	–
QGGSLPSEEKGHPQEESEESNVSM [CHGB]	5.59 ± 0.24	5.53 ± 0.25	–	–
RNLRTQQEIEDKMKGFSFKEDTLL [C8orf76]	4.11 ± 0.12	4.16 ± 0.19	–	–
EDEKLCDPNTRPVGEKNCTGPPCD [ADAMTSL2]	5.47 ± 0.21	5.46 ± 0.26	–	–
PGEKSHWGEGLHQLREALKILAER [EMID1]	–	2.13 ± 0.33	–	–
EKGETMEVIEKPENDPEWWKCKNA [NCK2]	5.36 ± 0.32	5.486 ± 0.04	–	–
EESPNGSEGACEKEKQSRDFQGRI [RHOBTB1]	5.35 ± 0.21	5.32 ± 0.46	–	–

Sequence	protein stability index [1]	protein stability index [2]	protein stability index (treatment: DMSO, c terminus: native)	protein stability index (treatment: MLN4924 1 uM, 8 h, c terminus: native)
TNALTHTVAMSTLNFCGPNVINHF [OR3A1]	2.41 ± 0.57	2.47 ± 0.27	–	–
YGRIVEVLLMKDRETNKSRGFAFV [RBMX]	2.9 ± 0.44	2.48 ± 0.59	–	–
SNRWLMVKIFLILIVFFIIFVVFL [STX5]	3.38 ± 0.24	3.45 ± 0.32	–	–
DCRYPYEYEGGHIKTAVNLPLERD [CDC25B]	4.13 ± 0.23	4.14 ± 0.63	–	–
IFSVLNSDDAAAPALETQPQGDEE [SMOC2]	5.22 ± 0.23	5.29 ± 0.44	–	–
GFIRHTVNKITFSEQCYYIFGDLC [DVL3]	3.11 ± 0.86	2.64 ± 0.16	–	–
PGFLSTAEEETLSRELEPELRRRR [ALKBH7]	5.12 ± 0.23	5.28 ± 0.3	–	–
IELANIRDEVAFHTAKCEKLQKEK [MTUS2]	4.31 ± 0.3	4.46 ± 0.44	–	–
ELPDPLGGLLDEAMLDEISLMDLA [NFE2L1]	4.26 ± 0.54	4.55 ± 0.23	–	–
PGPHSAKQDSYEQGDSSQQSLKGH [ZC2HC1C]	5.24 ± 0.28	5.52 ± 0.082	–	–
NQILMEKYLKLQDTCRTQLVWLVR [INTS3]	2.02 ± 0.39	2.38 ± 0.31	–	–
SSPSVSGPRRLVSCLSSQSSALSQ [SPACA3]	3.4 ± 0.27	3.52 ± 0.35	–	–
TCSFNPGVIVANMTEWKHQRITKQ [GLT8D2]	3.12 ± 0.11	3.06 ± 0.15	–	–
QFRVIGPRHPIRALVGDEVELPCR [MOG]	3.63 ± 0.31	3.64 ± 0.45	–	–
VFDNAIRAALISRRHLQFWKSHLK [RHOBTB1]	2.06 ± 0.63	2.4 ± 0.29	–	–
LEMRRRCTWSIFQSIEYAGQQDQV [PPEF2]	1.92 ± 0.52	2.25 ± 0.1	–	–
MRKTSNSCIMENGHQPGTGPGDGP [SMTNL2]	4.42 ± 0.064	4.55 ± 0.11	–	–
NLMSLLMAVRPSLPESGLLSVLQI [FANCE]	3.09 ± 0.51	2.78 ± 0.55	–	–
LLQRELMVPGTRHSAVLRDLRSGT [TNXB]	2.43 ± 0.3	2.75 ± 0.28	–	–
RNLETQHKVLELTAENERLQKKVE [CEBPB]	5.12 ± 0.57	5.49 ± 0.049	–	–
LRAELQGHHAEKLPAGAGAPKAGL [TNFSF13B]	4.34 ± 0.32	4.45 ± 0.35	–	–
KMLSKAVDALKSDKKVRTIIIRSE [AUH]	1.81 ± 0.26	2 ± 0.6	–	–

Sequence	protein stability index [1]	protein stability index [2]	protein stability index (treatment: DMSO, c terminus: native)	protein stability index (treatment: MLN4924 1 uM, 8 h, c terminus: native)
HRVLQRLEQRRQQASEREAPSIEQ [FCHSD1]	5.09 ± 0.25	4.99 ± 0.26	–	–
GPGGRRAGEPGHSPADYLRFQDLV [DYRK1B]	3.07 ± 0.35	3.27 ± 0.6	–	–
VKELGTVMRMLGQTPTKEELDAII [TNNC2]	3.02 ± 0.29	3.04 ± 0.94	–	–
HPGEHEVGEPEFHYIAGAHGNEVL [CPXM2]	5.1 ± 0.29	4.98 ± 0.31	–	–
VEQMTKEERQAAQNECQVLKLLNH [NEK8]	4.59 ± 0.18	4.63 ± 0.15	–	–
SMQCKVILLDGSEYTCDVEKRSRG [EPB41L3]	3.04 ± 0.29	3.61 ± 0.3	–	–
DLGDIVARSESVLLHMPQPVNPEL [TRIM43]	3.67 ± 0.31	3.8 ± 0.25	–	–
ICLMCVHSLERAGSKQYSAAIAFT [SMG5]	2.58 ± 0.33	2.42 ± 0.78	–	–
GTSTLLVWVGVIRYLTFFHNYNIL [MCOLN1]	3.35 ± 0.16	2.99 ± 0.2	–	–
REIEELLAEAKYYLVQGLVEECQA [KCTD10]	2.02 ± 0.34	2.16 ± 0.25	–	–
SVTRSCLLEEEEESGEEAAEAME [POP5]	–	–	5.52 ± 0.23	5.49 ± 0.12
APSKKAAKDPGKGELPNHPKPAGG [FBF1]	5.1 ± 0.43	5.53 ± 0.24	–	–
RPRRYVQPPEMIGPMRPEQFSDEV [GAGE1]	3.86 ± 0.26	4.41 ± 0.32	–	–
GAHEQVDFKDFYPAIADLFAESLQ [P3H4]	2.84 ± 0.51	3.08 ± 0.53	–	–
TLVDESDLYNWEVAIFGPPNTLYE [UBE2R2]	2.71 ± 0.17	2.81 ± 0.17	–	–
GPCKNCKMIMDTAGNDPYCFVEFH [TIA1]	2.2 ± 0.31	2.25 ± 0.35	–	–
DEDLRRQMQDDEQKTRLLEDSVSR [PALM]	5.46 ± 0.32	5.31 ± 0.38	–	–
IKSIVEASKGCQLGKTEQGFENMD [TRIM63]	4.54 ± 0.31	4.38 ± 0.33	–	–
FSTRALVLSILHATLPGIFMLLLI [SOAT2]	3.16 ± 0.35	3.37 ± 0.52	–	–
EDQWGKGTLTPRMTTDFDLSLDNS [TRIM9]	4.7 ± 0.18	4.9 ± 0.33	–	–
QIITSLVFHLPFYSSNQLHHFFCD [OR10K2]	2.8 ± 0.094	3.02 ± 0.21	–	–
